{"source": "patent US20200207829", "test_system": "TMt-NES-dCas9VP64", "data": [{"substance": "TEVC151A", "values": [{"measurement": "EYFP activation score", "result": "did not show any activity above baseline levels"}]}]}
